# Assay: yeast display, Sf9 membrane polyspecificity reagent, FACS + sequencing; frameworks hold sequencing errors
# Outline: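 A nanobody's polyreactivity label depends on the gate it was sorted from. Yeast display cells were stained with 10% biotinylated, detergent-solubilized Sf9 membrane reagent for 1 hour at 4 °C, enriched on streptavidin microbeads and sorted by FACS. The low and high (top ~1%) gates were set on anti-HA fluorescence for expression and streptavidin fluorescence for reagent binding.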
row,Sequence,polyreactivity (PSR sort gate)
1,QVQLVESVGGLVQAGGSLRLSCAASGRTIRWYAMGWYRQAPGKERELVAAITFRGGRTYYADSVKGRFTISRDNEKNTVYLQMNSMKPEDTAVYYCNAVTYSSPYRFDYWGQGTQVTLSS,low polyreactivity
2,QVQLVESVGGLVQAGGSLRLSCAASGRTISRNAMGWYRQAPGKERELVAAISASGGRTYYADSVKGRFTISRDNAKNTVYLQMKSLKPEDTEVYFCAASTTGYRYYDYCGQGTQVTVSS,high polyreactivity
3,QVQLVESVGGLVQAGGSLRLSCAASGSIFEYYAMGWYRQAPGKERELVAAITRSGGSTYYADSVKGRFTISRDNAKNTVYLQMNSLKPEDTAVYYCAVRGYSSYTYDEYYVGYDYWGQGTQVTVSS,low polyreactivity
4,QVQLVESVGGLVQAGGSLRLSCAASGSIFRVYAMGWYRQAPGKERELVATISGSAGRTYYADSVKGRFTISRDNAKNTVYLQMNSLKPEDTAVYYCAARWYKEYYWGQGTQVTVSS,high polyreactivity
5,QVQLVESVGGLVQAGGSLRLSCAASGSIFSPYAMGWYRQAPGKERELVAGISRDGSTYYADSVKGRFTISRDNAKNTVYLQMNSMKPEDTAVYYCAATEFRYFEGGAYFEGYYWGQGTQVTVSS,low polyreactivity
6,QVQLVESVGGLVQAGGSLRLSCAASGSIFSRNAMGWYRQAPGKERELVAAIRSTVSTYYADSVKGRFTISRDNAKNTVYLQMNSLKPEDTAVYYCATVTHVSPNKYYYWGQGTQVTVSS,high polyreactivity
7,QVQLVESVGGLVQAGGSLRLSCAASGSIFYNYAMGWYRQAPGKERELVAAISSNGGSTYYADSVKGRFTISRDIAKNTVYLQMNSLKPEDTAVYYCAARYWYPYWYRYSAYDYWGQGTQVTVSS,high polyreactivity
8,QVQLVESVGGLVQAGGSLRLSCAASGSIYRSYTMGWYRQAPRKEREFVAAITKRGGSTYYADSVKGRFTISRDNAKNTVYLQMISLKPEDTAVYYCAAVAGHYYYFRELGYWGQGTQVTVSS,high polyreactivity
9,QVQLVESVGGLVQAGGSLRLSCAASGSTFAGYAMGWYRQAPGKERELVAAISGGRTYYADSVKGRFTISRDNAKNTVYLQMNSLQPEDTAVYYCAKRYFYYTAYNAYGYWGQGTQVTVSS,high polyreactivity
10,QVQLVESVGGLVQAGGSLRLSCAASGSTFGTYAMGWYRQAPGKVSELVAAISNSGGSTYYADSVKGRFTISRDNAKNTVYLQMNSLKPEDTAVYYCNTDGLVRNGPFFSWGQGTQVTVSS,low polyreactivity
11,QVQLVESVGGLVQAGGSLRLSCAASGSTFGYNAMGWYRKAPGKERELVAGITSSGGSTYYADSVKGRFTISRDNAKNTVYLQMNSLKPEDTAVYYCAKAFYRHSSPNNSEYWGQGTQVTVSS,low polyreactivity
12,QVQLVESVGGLVQAGGSLRLSCAASGSTIGWNAMGWYRQAPGKERELVAAISSSGGSTNYADSVKGRFTISRDNAKNTVYLQMNCLKPEDTAVYYCAKGRRPGYGYGYWGHGTQVTVSS,low polyreactivity
13,QVQLVESVGGLVQAGGSLRLSCAASGSTSRFYDMGSYSQAPGKERELVAAITQSGGSTRYADSVKGRFTISRENAKNTVYLQLNSLKPEDTAVNYCAARVRGYSVTRTKPASIGGGSWGQGTQVTVSS,high polyreactivity
14,QVQLVESVGGLVQAGGSLRLSCAASGSTSYDYAMGWNRQAPGKERELVAAISGSSSTTYYADSVKGRFTISRDNAKNTVYLQMNSLKPEDTAVYYCNAVTTSGSGYGYWGQGTQVTVSS,low polyreactivity
15,QVQLVESVGGLVQAGGSLRLSCAASGVIFYFYTMGWSRQAPGKERELVAGITWSGDSTYYADSVKGRFTISRDNAKNTVYLQMNSLTPEDTAVYYCAAGFDFGTRVSKGYDYWGHGTQVTVSS,low polyreactivity
16,QVQLVESVGGLVQAGGSLRLSCAASVFIFRSYAMGWYRQAPGKERELVASISRRGASTYYADSVKGRFTISRDNAKNTVYLQMNSLKPEDTAVYYCNADGLRGFYTGAYDYDYWGQGTQVTVSS,high polyreactivity
17,QVQLVESVGGLVQAGGSLRLSCAASVNIFITNAMGWYRQAPGKERELVADISFSGGSTYYADSVKGRFTISRDTAKNTVYLQMNSLIPEDTAVYYCAARALASVSAHKYDYWGQGTQVTVSS,low polyreactivity
18,QVQLVESVGGLVQAGGSLRLSCAASVRTCRSNAMGWYRKAPGKEMEFVAAISISGTRTNYADSVKGRFTISRDNAKITVYLQMNSLKPEDTAVYYCARRYQIYDFFYHDLYDYWGQGTQVTVSS,low polyreactivity
19,QVQLVESVGGLVQAGGSLRLSCAATGRTFAWYALGWYRQAPGKERELVAAISSGGSTYYADSVKGRFTISRDNAKNTVYLQMNSLKPEDTAVYYCAAEWHYIYAYDYWGQGTQVTVSS,low polyreactivity
20,QVQLVESVGGLVQAGGSLRLSCADSGSIFAANAIGWFRQAPGKERELVAAISRSGNTYYADSVKGRFTISRDNAKNTVYLQMNSLKPEDTAVYYCAARRYAYGRTYGYWGQGTQVTVSS,high polyreactivity
21,QVQLVESVGGLVQAGGSLRLSCGASGSIFVANAMGWYIQAPGKEREFVAAITGSGGSTYYADSVKGRFTISRDNAKNTVYLQMNSLKPEDTAVYYCTGDYTVKFGYWGQGTQVTVSS,low polyreactivity
22,QVQLVESVGGLVQAGGSLRLSCPASGSIFKYNAMGWYRQSPGKERELVAAISSGGSTNYADSVKGRFTISRDNAKNTVYLQMNSLKPEDTAVYYCAKDRRRWYYTRDYWGQGTQVTVSS,low polyreactivity

row,Sequence,polyreactivity (PSR sort gate)
1,QVQLVESVGGLVQAGGSLRLSCPASGSTFRRYAMGWYRQAPGKERELVAAITRGGITYYADSVKGRFTISRDNAKNTFYLQMNSLKPEDTAVYYCAATTFGPYALYPRYYYWGQGTQVTVSS,high polyreactivity
2,QVQLVESVGGLVQAGGSLRLSCTATGSNFGYNAMGSYRQAPGKEREFVAAISWRGGSTYYADSVKGRLTISRDYAKNTVYLQMNSLKPEDTAVYYCAAVPQGSKRGYYYWGQGTQVTVSS,high polyreactivity
3,QVQLVESVGGLVQAGGSLRLSSAASGITFQYYDMGWYRQAPGKERELVAAIDTSGGSTYYADSVKGRFTISRDNEKNTVYLHMNSLKREDTSVYYGAACYYGYSVYGRMYYWGQGTQVTVSS,low polyreactivity
4,QVQLVESVGGLVQAGGSLRLTCAASGFTFDKYAMGWYRQAPGKERELVAAISNSGGRTYYADSVKGRFTISRDNAKNTVYLQMNSLKPEDTAVYYCAAVALTRRYDYWGQGTQVTVSS,high polyreactivity
5,QVQLVESVGGLVQAGGSLRLTCAASGFTFGPYAMGCYRQAAGKERELVAAITNRGGSTYADSVKGRFTISRDNAKNTVYLQMNSLKPEDTAVYYCATVSALEYNYWGQGTQVTVSS,low polyreactivity
6,QVQLVESVGGLVQAGGSLSLSCAASGSTFKQYAMGWYRQAPGKERELVAAISSRGGSTHYADSVKGRFTISRDNAKYTVYLQMNSLKPEDTAVYYCARDTDPQYSRSSDYDYWGQGTQVTVSS,low polyreactivity
7,QVQLVESVGGLVQAGGSLSLSCAASVFGRYAMGWYRPAPGKERELVARIYSSGGSTHYADSVKGRFTISRDNAKNTVYLQMNSLKPEDTAVYYCATGSTRWGCYYYWGQGTQVTVSS,high polyreactivity
8,QVQLVESVGGLVQAGGSRRLTSAASGRTFREYAMGWYRQAPWKERELVAAISDSGDSTYYADSVKGRFTISRDNAKNTVYLQMNSLKPEDTAVYYCAADYYDYEYDYWGQGTQVTVSS,low polyreactivity
9,QVQLVESVGGLVQAVGSLRLSCAASGRTFRHNAMGWYRQAHGKVRELVAAISSSGTNTHYADSVKGRFTISRDIAKNTVYLQMNSLQPEDTAVYYCAADRWGARRNQYHENGYWGQGTQVTVSS,high polyreactivity
10,QVQLVESVGGLVQEGGSLRLSCDASGSIFLYAMGWYRQAPGKERELVAAINRGGGSTYYADSVKGRFTISRDNAKNTVYLEMNSLKPEVTAVYYCAVVYLLPRYWWRYDYWGQGTQVTVSS,low polyreactivity
11,QVQLVESVGRLVQAGGSLRLSCAASGRIIYWNAKGWYRQAPGKERELVAGITTGGSTYYADSVKGRFTISRDNAKNTVYLQMNSLKPEDTAVYYCAARPFIRQRYGYWGKGTQVTVSS,high polyreactivity
12,QVQLVESVGVLVQAGGSLRLSCAASGSTFSSYAMGWYRPAPGKERELVAVISSRGTSTSYADSVKGRFTISRDNAKNTVYLQMNSLKQEDTAVYYCAASRFRWVQRYDYWGQGTQVTVSS,high polyreactivity
13,QVQLVESVRGLVQAGGSLRISCASSGSTFFTYPMGWYRQAPGKERELVASISIGGSTNYADSVKGRFTISRDNAKNTVYLQMNSLKPEDTAVYYCAKRYFTFGVDYDYWGQGTQVSVSS,low polyreactivity
14,QVQLVESVRGLVQAGGSLRLSCASSGSTFYGYTLGWYRQAPGKERELVAAISWSGGSTYYADSVKGRFTISRDNAKNTVYLQMNSLKPEDTAVFYCAARWGYSRRGYRGYDYWGQGTQVTVSS,high polyreactivity
15,QVQLVESVVGLVQAGGSLLISCAAYGLTFKGYAMVWYRQAPGKERELVAAITWDTGSTYYADSVKGRFSISRDNAKNTVYLQMNSLKPEDTAVYYCAAVGSTTTGVRRRGYWGHGTQVTVSS,high polyreactivity
16,QVQLVESVVGLVQAGGSLRLSCADSGSTFRSNAMGWYRQAPGKETELVAGITSGTSTNYADSVKGRFTISRDNAKNTVYLQMNSLKPEDTAVYYCNTDRIWYGPEYDFWGQGTQVTVSS,low polyreactivity
17,QVQLVESVVGLVQARGSLRLSSAATGRTFSRYAMGWYRQAPGKESELVATISWSGTSKYYADSVKGRFTISRDNAKNTVYLQMNSLKPEETAVYYCDAYYLTRFSILYYYWGLGTQVTVSS,high polyreactivity
18,QVQLVESWGGLDQAGGSLRLSCAASGRILRTYAMGWYRQAPGKERELVAAITWSGGSTYYADSVKGRFTISRDNAKNTVYLQMNSLKPEDTAVYDCNALTPGYRIYDYWGQGTQVTVSS,high polyreactivity
19,QVQLVESWGGLVQAGGILRLSCASYGFIFPIYAMGWYIQAPGKESELVALIRSGGSTYYADSVKGRFTISRDNAKNTVYLQMHSRKPEDTAVYYCKAKRYGMWGAAGRVGYDYWGQGTQVTVSS,high polyreactivity
20,QVQLVESWGGLVQAGGSHRLSCAASGRTFPIYAMGWYRQAPGKERELVAAITYSGGSTYYADSVKGRFTISRDNAKNTVYLQMNSLKPEDTAVYYCAVDGTKPYWHQRYDYWGQGTQVTVSS,low polyreactivity
21,QVQLVESWGGLVQAGGSLRISCAASGNIFRYAMGWYRQAPGKERELVAAITYRGSTTYYADSVKGRFTISCDNAKNTVYLQMISLKPEDTAVYYCAARASYTRRHVGRPYDYWGQGTQVSVSS,high polyreactivity
